Results on 3 molecules are retold here after patent US20250002610A1 (Genmab, published 2025).

As a reminder, the EC50 is the midpoint of the concentration-response curve. Read a high EC50 as weaker potency.

The target in test [1] is T1, human DR4 (Death Receptor 4), cell surface expressed on human tumor cell lines (human, UniProt O00220 24-468).
T1 construct: also called TNFRSF10A; TRAIL-R1
T1 sequence: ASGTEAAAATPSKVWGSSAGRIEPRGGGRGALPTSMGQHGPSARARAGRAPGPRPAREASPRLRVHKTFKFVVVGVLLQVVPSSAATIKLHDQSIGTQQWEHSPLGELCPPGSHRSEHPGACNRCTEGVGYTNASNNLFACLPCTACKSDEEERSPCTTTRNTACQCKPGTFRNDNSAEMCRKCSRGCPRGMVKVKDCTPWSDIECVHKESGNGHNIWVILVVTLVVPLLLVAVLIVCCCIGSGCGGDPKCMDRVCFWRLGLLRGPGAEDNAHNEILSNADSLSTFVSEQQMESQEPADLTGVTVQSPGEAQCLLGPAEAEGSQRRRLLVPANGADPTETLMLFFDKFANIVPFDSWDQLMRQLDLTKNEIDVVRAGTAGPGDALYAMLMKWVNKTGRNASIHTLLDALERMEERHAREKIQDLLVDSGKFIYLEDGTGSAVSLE
In words: flow cytometry, MDA-MB-231 cells, n = 3. In general terms: A flow cytometer gives signals particle by particle.

In test [2] the target is human DR4 with death domain deletion on ExpiCHO-S cells (human). In words: flow cytometry, ExpiCHO-S cells expressing human DR4, n = 1. As to the method:
Binding of BisG1-FAPα-FERL/DR4-FERR, BisG1-DR4-FEAL/b12-FEAR and IgG1-DR4-FERR to DR4 of various species commonly used for nonclinical toxicology studies was assessed by flow cytometry using ExpiCHO-S cells transiently expressing DR4 from different animal species. In contrast to other species, rodents only express one DR which has highest homology with human DR5. Therefore, ExpiCHO-S cells transiently expressing rat and mouse DR protein were used instead. All DR constructs lack the intracellular DD to avoid apoptosis of transfected cells upon DR(4) activation. IgG1-b12 was used as negative control.

In test [3] the target is T2, human FAPα (Fibroblast activation protein alpha), cell surface expressed (human, UniProt Q12884 1-760).
T2 construct: Endogenous on human lung fibroblasts and CAFs
T2 sequence: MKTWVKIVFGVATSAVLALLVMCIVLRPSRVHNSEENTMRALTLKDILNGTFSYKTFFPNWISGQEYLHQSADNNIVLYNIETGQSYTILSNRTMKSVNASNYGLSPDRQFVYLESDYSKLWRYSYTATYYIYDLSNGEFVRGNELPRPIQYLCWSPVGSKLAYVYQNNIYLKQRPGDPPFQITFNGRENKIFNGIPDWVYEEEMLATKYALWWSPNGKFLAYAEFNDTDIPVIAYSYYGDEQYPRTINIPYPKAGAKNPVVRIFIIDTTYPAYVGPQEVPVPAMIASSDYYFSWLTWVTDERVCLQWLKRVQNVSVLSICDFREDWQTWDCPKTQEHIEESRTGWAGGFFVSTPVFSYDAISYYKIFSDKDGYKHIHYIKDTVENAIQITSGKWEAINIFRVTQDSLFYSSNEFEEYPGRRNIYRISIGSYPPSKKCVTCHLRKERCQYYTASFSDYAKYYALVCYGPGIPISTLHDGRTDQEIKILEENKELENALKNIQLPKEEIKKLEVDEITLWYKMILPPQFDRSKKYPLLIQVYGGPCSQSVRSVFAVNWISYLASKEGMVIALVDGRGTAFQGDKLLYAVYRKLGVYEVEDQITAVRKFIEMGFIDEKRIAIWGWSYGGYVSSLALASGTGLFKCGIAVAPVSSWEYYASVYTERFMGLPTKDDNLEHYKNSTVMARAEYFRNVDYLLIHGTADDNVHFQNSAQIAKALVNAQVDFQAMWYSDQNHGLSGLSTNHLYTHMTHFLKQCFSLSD
Briefly: flow cytometry, CAFs, average ± SEM. On the procedure: (§1) Binding of bispecific or monoclonal antibodies carrying the anti-FAPα arm derived from IgG1-FAPα-FERL (BisG1-FAPα-FERL/DR4-FERR, BisG1-FAPα-FERL/b12-FERR, and IgG1-FAPα-FERL) to cell surface expressed human FAPα was analyzed by flow cytometry using human lung fibroblasts and CAFs, which endogenously express FAPα. BisG1-b12-FERL/b12-FERR was used as negative control.
(§2) Human lung fibroblasts and CAFs (50,000 cells/well) were seeded in 96-Well round bottom plates (Greiner Bio-one, Cat #650101). Antibody dilutions were prepared using fluorescence-activated cell sorting (FACS) buffer, consisting of phosphate buffer saline (PBS, Lonza, Cat #BE17-517Q)+1% Bovine Serum Albumin (BSA, Roche, Cat #10735086001)+0.02% Sodium Azide (Bio-World, Cat #41920044-3). Plates were centrifuged, supernatant was removed, cells were resuspended in 50 μL of human Fc Block (BD, Cat #564220, diluted 1:100 in FACS buffer) and 50 μL of viability stain TO-PRO-3 Iodide (Thermo Fisher, Cat #T3605, diluted 1: 25,000 in FACS buffer), and incubated for 15 min at 4° C. Plates were washed three times with FACS buffer. […] Antibody binding to viable cells (TO-PRO-3 negative) was analyzed by flow cytometry on a FACSCelesta™ (BD biosciences) and data were processed using FlowJo_v10.8.1 (FlowJo LLC). Geomean fluorescence intensity, gMFI, was determined and visualized using GraphPad Prism.

The target of test [4] is T2, human FAPα (Fibroblast activation …). Briefly: flow cytometry, CAFs, n = 3. On the procedure:
as §1, §2

In test [5] the target is T1, human DR4 (Death Receptor 4), cell …. Briefly: flow cytometry, HCT-15 cells, average ± SEM.
Test [6] has as its target T2, human FAPα (Fibroblast activation …). Briefly: flow cytometry, CAFs, n = 2. As to the method:
as §1, §2

B1: IgG1-DR4-FERR (antibody, V domains shown)
VH: QVQLQESGPGLVKPSGTLSLTCAVSGGSISSYSWWSWIRQPPGKGLEWIGELYHSGSTNYNPSLKSRVTISVDKSKNQFSLKLRSVTAADTAVYYCVRGVATIDYWGQGTLVTVSS
VL: QSALTQPPSASGSPGQSVTISCTGTSSDVGGYNFVSWYQQDPGKAPKLLIYEVTKRPSGVPDRFSGSKSGNTASLTVSGLQAEDEADYYCSSYAGSNNVMFGGGTKLTVLG
notes: Bivalent monoclonal IgG1 lambda
Consider B1, for which the EC50 in test [1] came to 0.37 µg/mL; in test [2], 0.33 µg/mL.

B2: BisG1-FAPα-FERL/DR4-FERR (bispecific antibody, human IgG1, kappa, lambda)
heavy 1: EVQLLESGGGLVQPGGSPRLSCEASGFTFSSYALSWVRQAPGKGLEWVSAISGSGGGRYYADSVKGRFTISRDNSKNTLFLQMNSLRAEDTAVYYCAKEGYSSSGTYWDHWGQGTLVTVSSASTKGPSVFPLAPSSKSTSGGTAALGCLVKDYFPEPVTVSWNSGALTSGVHTFPAVLQSSGLYSLSSVVTVPSSSLGTQTYICNVNHKPSNTKVDKRVEPKSCDKTHTCPPCPAPEFERGPSVFLFPPKPKDTLMISRTPEVTCVVVDVSHEDPEVKFNWYVDGVEVHNAKTKPREEQYNSTYRVVSVLTVLHQDWLNGKEYKCKVSNKALPAPIEKTISKAKGQPREPQVYTLPPSREEMTKNQVSLTCLVKGFYPSDIAVEWESNGQPENNYKTTPPVLDSDGSFLLYSKLTVDKSRWQQGNVFSCSVMHEALHNHYTQKSLSLSPG
light 1: AIQMTQSPSSVSASVGDRVTITCRASQGVSSWLAWYQQKPGRAPKLLIYVASTLQSGVPSRFSGSGSGTDFTLTINSLQPEDFATYYCQQANSFPPTFGQGTRLEMKRTVAAPSVFIFPPSDEQLKSGTASVVCLLNNFYPREAKVQWKVDNALQSGNSQESVTEQDSKDSTYSLSSTLTLSKADYEKHKVYACEVTHQGLSSPVTKSFNRGEC
heavy 2: QVQLQESGPGLVKPSGTLSLTCAVSGGSISSYSWWSWIRQPPGKGLEWIGELYHSGSTNYNPSLKSRVTISVDKSKNQFSLKLRSVTAADTAVYYCVRGVATIDYWGQGTLVTVSSASTKGPSVFPLAPSSKSTSGGTAALGCLVKDYFPEPVTVSWNSGALTSGVHTFPAVLQSSGLYSLSSVVTVPSSSLGTQTYICNVNHKPSNTKVDKRVEPKSCDKTHTCPPCPAPEFERGPSVFLFPPKPKDTLMISRTPEVTCVVVDVSHEDPEVKFNWYVDGVEVHNAKTKPREEQYNSTYRVVSVLTVLHQDWLNGKEYKCKVSNKALPAPIEKTISKAKGQPREPQVYTLPPSREEMTKNQVSLTCLVKGFYPSDIAVEWESNGQPENNYKTTPPVLDSDGSFFLYSRLTVDKSRWQQGNVFSCSVMHEALHNHYTQKSLSLSPG
light 2: QSALTQPPSASGSPGQSVTISCTGTSSDVGGYNFVSWYQQDPGKAPKLLIYEVTKRPSGVPDRFSGSKSGNTASLTVSGLQAEDEADYYCSSYAGSNNVMFGGGTKLTVLGQPKAAPSVTLFPPSSEELQANKATLVCLISDFYPGAVTVAWKADSSPVKAGVETTTPSKQSNNKYAASSYLSLTPEQWKSHRSYSCQVTHEGSTVEKTVAPTECS
notes: Human IgG1 bispecific made by controlled Fab-arm exchange of IgG1-FAPα-FERL and IgG1-DR4-FERR; monovalent for FAPα and for DR4; also called GEN1057
For B2, the concentration giving a half-maximal response (EC50) in test [3] was found to be 0.203 µg/mL; in test [4], 0.211 µg/mL; in test [5], 0.65 µg/mL; in test [2], 1 µg/mL; in test [6], 0.232 µg/mL.

B3: BisG1-FAPα-FERL/b12-FERR (bispecific antibody, human IgG1, kappa)
heavy 1: B2 heavy 1
light 1: B2 light 1
heavy 2: QVQLVQSGAEVKKPGASVKVSCQASGYRFSNFVIHWVRQAPGQRFEWMGWINPYNGNKEFSAKFQDRVTFTADTSANTAYMELRSLRSADTAVYYCARVGPYSWDDSPQDNYYMDVWGKGTTVIVSSASTKGPSVFPLAPSSKSTSGGTAALGCLVKDYFPEPVTVSWNSGALTSGVHTFPAVLQSSGLYSLSSVVTVPSSSLGTQTYICNVNHKPSNTKVDKRVEPKSCDKTHTCPPCPAPEFERGPSVFLFPPKPKDTLMISRTPEVTCVVVDVSHEDPEVKFNWYVDGVEVHNAKTKPREEQYNSTYRVVSVLTVLHQDWLNGKEYKCKVSNKALPAPIEKTISKAKGQPREPQVYTLPPSREEMTKNQVSLTCLVKGFYPSDIAVEWESNGQPENNYKTTPPVLDSDGSFFLYSRLTVDKSRWQQGNVFSCSVMHEALHNHYTQKSLSLSPG
light 2: EIVLTQSPGTLSLSPGERATFSCRSSHSIRSRRVAWYQHKPGQAPRLVIHGVSNRASGISDRFSGSGSGTDFTLTITRVEPEDFALYYCQVYGASSYTFGQGTKLERKRTVAAPSVFIFPPSDEQLKSGTASVVCLLNNFYPREAKVQWKVDNALQSGNSQESVTEQDSKDSTYSLSSTLTLSKADYEKHKVYACEVTHQGLSSPVTKSFNRGEC
As to B3, the EC50 in test [3] came out at 0.21 µg/mL; in test [4], 0.218 µg/mL; in test [6] it was 0.231 µg/mL.
